According to paper PMC11865060, “Novel human single-domain antibodies exert potent anti-tumor activity by targeting EGF-like repeat epitope of EpCAM” (Frontiers in Pharmacology, 2025):

B1: aEP3B2 (VHH)
VHH: QVQLLESGGGLVQPGGSLRLSCAASGDRVSYKFMAWVRQAPGKGLEWVSSIRGNDGSTYYADSVKGRFTISRDNSKNTLYLQMNSLRAEDTAVYYCARKGKRHYELPYWGQGTLVTVSS
notes: fully human VH single-domain antibody from a phage library (Source BioScience); Human VH-only sdAb (not camelid), not Fc-fused; cloned into pET-22b by Not I and Nco I sites; also called anti-EpCAM sdAb aEP3B2; source: E. coli BL21 (DE3), purified (Ni-NTA)
B2: aEP3D4 (VHH)
VHH: QVQLLESGGGLVQPGGSLRLSCAASGVKFSNHDMTWVRQAPGKGLEWVSAINSGGGSTYYADSVKGRFTISRDNSKNTLYLQMNSLRAEDTAVYYCARMGRQARVPHHMRFWGQGTLVTVSS
notes: fully human VH single-domain antibody from a phage library (Source BioScience); Human VH-only sdAb (not camelid), not Fc-fused; cloned into pET-22b by Not I and Nco I sites; also called anti-EpCAM sdAb aEP3D4; source: E. coli BL21 (DE3), purified (Ni-NTA)
B3: aEP4D11 (VHH)
VHH: QVQLLESGGGLVQPGGSLRLSCAASGVKIIPKSMAWVRQAPGKGLEWVSTIETADGSTYYADSVKGRFTISRDNSKNTLYLQMNSLRAEDTAVYYCASVSRSRTNSLKSWGQGTLVTVSS
notes: fully human VH single-domain antibody from a phage library (Source BioScience); Human VH-only sdAb (not camelid), not Fc-fused; cloned into pET-22b by Not I and Nco I sites; also called anti-EpCAM sdAb aEP4D11; source: E. coli BL21 (DE3), purified (Ni-NTA)
B4: aEP5A5 (VHH)
VHH: QVQLLESGGGLVQPGGSLRLSCAASGVRFSNEVMAWVRQAPGKGLEWVSGIEMKNGSTYYADSVKGRFTISRDNSKNTLYLQMNSLRAEDTAVYYCASWGHSRRQQSKFNSWGQGTLVTVSS
notes: fully human VH single-domain antibody from a phage library (Source BioScience); Human VH-only sdAb (not camelid), not Fc-fused; cloned into pET-22b by Not I and Nco I sites; also called anti-EpCAM sdAb aEP5A5; source: E. coli BL21 (DE3), purified (Ni-NTA)
B5: aEP4G2 (VHH)
VHH: QVQLLESGGGLVQPGGSLRLSCAASGFTFSYNNMAWVRQAPGKGLEWVSAIEGKDGSTYYADSVKGRFTISRDNSKNTLYLQMNSLRAEDTAVYYCARRKGRTEKLSYWGQGTLVTVSS
notes: fully human VH single-domain antibody from a phage library (Source BioScience); Human VH-only sdAb (not camelid), not Fc-fused; cloned into pET-22b by Not I and Nco I sites; also called anti-EpCAM sdAb aEP4G2; source: E. coli BL21 (DE3), purified (Ni-NTA)

Columns and labels:
[1] = molecular target: T1, EpCAM complete extracellular domain protein (Homo sapiens (assumed), UniProt P16422); test: ELISA; 0.2 μg of antigen coated per well at 4°C overnight; purified sdAb at 1 μg/mL, RT 1 h; detection with HRP-conjugated protein A, absorbance at 450 nm; conditions: both partners purified
T1 construct: Epithelial cell adhesion molecule (EpCAM), complete extracellular domain, bought; Commercial protein; no catalogue number, limits or tags printed; source: bought: Shanghai Bootech BioSci. and Technol
T1 sequence (P16422 24-265): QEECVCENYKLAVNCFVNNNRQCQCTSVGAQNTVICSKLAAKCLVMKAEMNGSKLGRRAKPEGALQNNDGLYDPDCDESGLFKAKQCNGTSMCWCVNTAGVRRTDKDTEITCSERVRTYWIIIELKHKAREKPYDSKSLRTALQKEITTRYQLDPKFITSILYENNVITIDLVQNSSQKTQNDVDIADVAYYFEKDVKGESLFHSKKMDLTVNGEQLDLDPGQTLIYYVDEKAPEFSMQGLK

[2] = molecular target: T2, EpCAM on DU145, PC3 and MCF-7 cancer cells (Homo sapiens (DU145, PC3, MCF-7), UniProt P16422); test: flow cytometry on cells; cells (1 × 10^6/mL) incubated with the sdAbs at 4°C for 1 h; detection with FITC-conjugated protein A; 293T and 3T3 cells as negative controls; conditions: one partner purified
T2 construct: Epithelial cell adhesion molecule (EpCAM), endogenous on the three EpCAM+ human cancer cell lines DU145, PC3 and MCF-7; also called Epithelial cell adhesion molecule; source: endogenous, on DU145, PC3 and MCF-7 cells
T2 sequence (P16422 24-314): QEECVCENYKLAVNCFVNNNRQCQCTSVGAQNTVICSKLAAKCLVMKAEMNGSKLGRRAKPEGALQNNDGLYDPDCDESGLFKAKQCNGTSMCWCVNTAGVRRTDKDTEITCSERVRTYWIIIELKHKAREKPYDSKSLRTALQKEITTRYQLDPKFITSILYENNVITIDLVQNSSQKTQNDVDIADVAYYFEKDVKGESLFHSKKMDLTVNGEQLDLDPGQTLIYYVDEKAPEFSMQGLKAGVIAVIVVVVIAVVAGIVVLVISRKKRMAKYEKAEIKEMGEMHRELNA

Row | Binder | binding result [1] | binding result [2]
1 | B1 | binds | binds
2 | B2 | binds | binds
3 | B3 | binds | binds
4 | B4 | – | binds
5 | B5 | binds | binds
